Assay results reported in ChEMBL document CHEMBL1649220, “New variant of CTX-M-type extended-spectrum beta-lactamases, CTX-M-71, with a Gly238Cys substitution in a Klebsiella pneumoniae isolate from Bulgaria” (2009).

Assays:
[1] = substrate: O=C(Cc1cccs1)N[C@@H]1C(=O)N2C(C(=O)[O-])=C(C[n+]3ccccc3)CS[C@H]12; assay: (§1) Activity of Klebsiella pneumoniae AH27 CTX-M-15 beta-lactamase
[2] = substrate: C[C@@H](O)[C@H]1C(=O)N2C(C(=O)O)=C(S[C@@H]3CN[C@H](C(=O)N(C)C)C3)[C@H](C)[C@H]12; assay: as §1
[3] = substrate: CO/N=C(\C(=O)N[C@@H]1C(=O)N2C(C(=O)O)=C(COC(N)=O)CS[C@H]12)c1ccco1; assay: as §1
[4] = substrate: C[C@@H](O)[C@H]1C(=O)N2C(C(=O)O)=C(S[C@@H]3CN[C@H](CNS(N)(=O)=O)C3)[C@H](C)[C@H]12; assay: as §1
[5] = substrate: CC(C)(O/N=C(\C(=O)N[C@@H]1C(=O)N2C(C(=O)[O-])=C(C[n+]3ccccc3)CS[C@H]12)c1csc(N)n1)C(=O)O; assay: as §1
[6] = substrate: CO/N=C(\C(=O)N[C@@H]1C(=O)N2C(C(=O)O)=C(COC(C)=O)CS[C@H]12)c1csc(N)n1; assay: as §1
[7] = substrate: C[C@@H](O)[C@H]1C(=O)N2C(C(=O)O)=C(SCCNC=N)C[C@H]12; assay: as §1
[8] = substrate: CC1(C)S[C@@H]2[C@H](NC(=O)Cc3ccccc3)C(=O)N2[C@H]1C(=O)O; assay: as §1
[9] = substrate: O=C(Cc1cccs1)N[C@@H]1C(=O)N2C(C(=O)[O-])=C(C[n+]3ccccc3)CS[C@H]12; assay: (§2) Activity of Klebsiella pneumoniae AH24-270 CTX-M-71 beta-lactamase
[10] = substrate: C[C@@H](O)[C@H]1C(=O)N2C(C(=O)O)=C(S[C@@H]3CN[C@H](C(=O)N(C)C)C3)[C@H](C)[C@H]12; assay: as §2
[11] = substrate: CCN1CCN(C(=O)N[C@@H](C(=O)N[C@@H]2C(=O)N3[C@@H]2SC(C)(C)[C@@H]3C(=O)O)c2ccccc2)C(=O)C1=O; assay: as §2
[12] = substrate: CO/N=C(\C(=O)N[C@@H]1C(=O)N2C(C(=O)O)=C(COC(N)=O)CS[C@H]12)c1ccco1; assay: as §2
[13] = substrate: C[C@@H](O)[C@H]1C(=O)N2C(C(=O)O)=C(S[C@@H]3CN[C@H](CNS(N)(=O)=O)C3)[C@H](C)[C@H]12; assay: as §2
[14] = substrate: CC(C)(O/N=C(\C(=O)N[C@@H]1C(=O)N2C(C(=O)[O-])=C(C[n+]3ccccc3)CS[C@H]12)c1csc(N)n1)C(=O)O; assay: as §2
[15] = substrate: C[C@@H](O)[C@H]1C(=O)N2C(C(=O)O)=C([C@H]3CCCO3)S[C@H]12; assay: as §2
[16] = substrate: CO/N=C(\C(=O)N[C@@H]1C(=O)N2C(C(=O)O)=C(COC(C)=O)CS[C@H]12)c1csc(N)n1; assay: as §2
[17] = substrate: C[C@@H](O)[C@H]1C(=O)N2C(C(=O)O)=C(SCCNC=N)C[C@H]12; assay: as §2
[18] = substrate: CC1(C)S[C@@H]2[C@H](NC(=O)Cc3ccccc3)C(=O)N2[C@H]1C(=O)O; assay: as §2
[19] = substrate: C[C@H]1[C@H](NC(=O)/C(=N\OC(C)(C)C(=O)O)c2csc(N)n2)C(=O)N1S(=O)(=O)O; assay: as §2
[20] = substrate: CC1(C)S[C@@H]2[C@H](NC(=O)[C@H](N)c3ccc(O)cc3)C(=O)N2[C@H]1C(=O)O; assay: as §2

B1: Beta-lactamase AH27 CTX-M-15 (Klebsiella pneumoniae), Q2PUH3 (protein)
chain: MVKKSLRQFTLMATATVTLLLGSVPLYAQTADVQQKLAELERQSGGRLGVALINTADNSQILYRADERFAMCSTSKVMAAAAVLKKSESEPNLLNQRVEIKKSDLVNYNPIAEKHVNGTMSLAELSAAALQYSDNVAMNKLIAHVGGPASVTAFARQLGDETFRLDRTEPTLNTAIPGDPRDTTSPRAMAQTLRNLTLGKALGDSQRAQLVTWMKGNTTGAASIQAGLPASWVVGDKTGSGGYGTTNDIAVIWPKDRAPLILVTYFTQPQPKAESRRDVLASAAKIVTDGL
Km [1]: 39 µM | kcat [1]: 188 s⁻¹ | kcat [2]: < 0.004 s⁻¹ | Km [3]: 180 µM | kcat [3]: 45 s⁻¹ | kcat [4]: < 0.002 s⁻¹ | Km [5]: 236 µM | kcat [5]: 4.4 s⁻¹ | Km [6]: 26 µM | kcat [6]: 176 s⁻¹ | kcat [7]: < 0.17 s⁻¹ | Km [8]: 8.7 µM | kcat [8]: 47 s⁻¹

B2: Extended spectrum beta-lactamase CTX-M-71 (Klebsiella pneumoniae), C8YUV9 (protein)
chain: MVKKSLRQFTLMATATVTLLLGSVPLYAQTADVQQKLAELERQSGGRLGVALINTADNSQILYRADERFAMCSTSKVMAAAAVLKKSESEPNLLNQRVEIKKSDLVNYNPIAEKHVNGTMSLAELSAAALQYSDNVAMNKLIAHVGGPASVTAFARQLGDETFRLDRTEPTLNTAIPGDPRDTTSPRAMAQTLRNLTLGKALGDSQRAQLVTWMKGNTTGAASIQAGLPASWVVGDKTGSCGYGTTNDIAVIWPKDRAPLILVTYFTQPQPKAESRRDVLASAAKIVTDGL
Km [9]: 18 µM | kcat [9]: 68 s⁻¹ | kcat [10]: < 0.07 s⁻¹ | Km [11]: 3.2 µM | kcat [11]: 27 s⁻¹ | Km [12]: 85 µM | kcat [12]: 8.8 s⁻¹ | kcat [13]: < 0.05 s⁻¹ | Km [14]: 180 µM | kcat [14]: 0.69 s⁻¹ | kcat [15]: < 0.46 s⁻¹ | Km [16]: 130 µM | kcat [16]: 65 s⁻¹ | kcat [17]: < 0.07 s⁻¹ | Km [18]: 4.9 µM | kcat [18]: 58 s⁻¹ | Km [19]: 10 µM | kcat [19]: 0.84 s⁻¹ | Km [20]: 5.2 µM | kcat [20]: 49 s⁻¹
